# T1: DIS3L2 (rDIS3L2, wild type) (Homo sapiens, UniProt Q8IYB7 1-885)
# T1 sequence: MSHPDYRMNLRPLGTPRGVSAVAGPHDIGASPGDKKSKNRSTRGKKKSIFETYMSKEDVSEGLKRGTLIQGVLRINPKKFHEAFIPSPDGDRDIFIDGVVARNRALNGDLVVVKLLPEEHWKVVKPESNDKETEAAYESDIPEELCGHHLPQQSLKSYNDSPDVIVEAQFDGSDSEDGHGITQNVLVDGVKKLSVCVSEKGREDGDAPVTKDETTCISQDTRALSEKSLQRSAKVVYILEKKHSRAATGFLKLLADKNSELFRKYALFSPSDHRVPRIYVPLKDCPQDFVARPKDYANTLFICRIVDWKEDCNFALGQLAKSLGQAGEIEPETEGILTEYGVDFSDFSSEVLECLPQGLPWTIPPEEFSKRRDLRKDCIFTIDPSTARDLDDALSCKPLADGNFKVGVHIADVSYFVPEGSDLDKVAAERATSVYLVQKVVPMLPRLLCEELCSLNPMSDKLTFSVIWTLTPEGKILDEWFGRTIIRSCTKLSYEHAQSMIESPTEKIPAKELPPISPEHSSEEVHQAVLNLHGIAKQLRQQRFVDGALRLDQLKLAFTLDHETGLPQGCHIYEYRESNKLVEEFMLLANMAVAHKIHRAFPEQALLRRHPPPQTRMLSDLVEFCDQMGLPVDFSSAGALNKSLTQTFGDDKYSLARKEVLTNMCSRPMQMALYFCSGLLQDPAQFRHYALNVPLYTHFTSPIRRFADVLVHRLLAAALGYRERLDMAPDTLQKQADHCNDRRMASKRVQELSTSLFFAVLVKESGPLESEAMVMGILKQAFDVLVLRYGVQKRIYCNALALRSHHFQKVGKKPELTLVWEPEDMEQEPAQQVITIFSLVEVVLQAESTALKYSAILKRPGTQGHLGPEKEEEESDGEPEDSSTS
# B1: U30 RNA (ssRNA)
# RNA: UUUUUUUUUUUUUUUUUUUUUUUUUUUUUU
# Target: T1, DIS3L2 (rDIS3L2, wild type)
# Test: EMSA
binder,measurement,value
B1,binding result,binds
